Numbered stars: 1 amine (or outer) side, 2 acyl side, 3 side chain; on linkers, the order of the positions; unused ones are H or OH. Square brackets hold non-standard residues; d marks the D form. Peptide text beside a SMILES is read from it. * marks the point of attachment. DOTA = O=C(O)CN1CCN(CC(=O)O)CCN(CC(=O)*)CCN(CC(=O)O)CC1; Cha = N[C@@H](CC1CCCCC1)C(=O)O; X1 = O=C(CCC(=O)[*:2])CN[*:1]; 4Abz = Nc1ccc(C(=O)O)cc1; Nle = CCCC[C@H](N)C(=O)O; Ahx = NCCCCCC(=O)O
Experiments:
[1] = test system: MDA-MB-231 tumors; test: in vivo; format: in vivo, nude mice; conditions: for Radioactivity in Urine + bladder / Uptake in Blood / Uptake in Intestines (measured without their contents) / Uptake in Kidneys / Uptake in Liver / Uptake in Lungs / Uptake in Muscle / Uptake in Pancreas / Uptake in Spleen / Uptake in Stomach: female, nude, mouse, in vivo; for Uptake in Tumor: nude mice with MDA-MB-231 tumors, mean ± SD, n = 3-5
Procedure: BN/GRP receptor-positive MDA-MB-231 and PC3 cell lines (American Type Culture Collection, Rockville, USA) were grown as monolayers at 37 °C in a humidified atmosphere containing RPMI-1640 culture media with 10% fetal bovine serum (FBS) in tissue culture flasks. Twenty-four hours prior to conducting the tumor implantation, the media was replaced with RPMI-1640/10% FBS. The cells were grown to 80-90% confluency and harvested by trypsinization. After centrifugation, about 50 million cells were suspended in 1 mL media for implantation into mice. To prepare cells for inoculation, MDA-MB-231 or PC3 cancer cells with media were centrifuged, the media decanted, and the cell pellet was mixed with phosphate-buffered saline (PBS) to reach a concentration of approximately 5 million cells per 100 μL PBS. Human MDA-MB-231 breast cancer xenografts female mouse models were used for in vivo tumor-targeting experiments. For the implantation of tumor xenografts, approximately five million MDA-MB-231 cells in suspension of 100 μL sterile PBS were injected subcutaneously into the left thigh of each mouse. Tumors were allowed to grow for 4-6 weeks by which tumors had reached weights of 200-300 mg. After sufficient growth of tumors, animals were injected with 20-30 μCi of the radiotracers and the animals were sacrificed at specified time points. The uptake of ^68Ga-radiolabeled peptides in the tumors and other major body organs was calculated by γ-counting as described above.

[2] = target: T1, BN/GRP receptor-positive T47D human breast cancer cells (Homo sapiens, UniProt P30550); test: Saturation binding assay on T47D cells; conditions: n = 3-5 experiments; for Bmax (apparent number of binding sites per cell): SD < 15%; for Kd: ~300,000 cells, 0.1-25 nM radiopeptide, 60 min, room temperature, mean ± SD
T1 construct: BN/GRP receptor-positive MDA-MB-231, MCF7, T47D human breast cancer, and PC3 human prostate cancer lines; host or cells: MDA-MB-231, MCF7, T47D (human breast cancer), PC3 (human prostate cancer); intact cells
Procedure: (§1) The cell binding of ^68Ga-radiolabeled peptides into BN/GRP receptor-positive MDA-MB-231, MCF7, T47D human breast cancer, and PC3 human prostate cancer lines (American Type Culture Collection, Rockville, MD, USA) was performed according to the method described previously. In brief, ∼ 300,000 cells (in 300 μL in low-serum media) were incubated with various amounts of radiopeptides, ranging between 0.1 and 25 nM of peptide (prepared from the serial dilutions of HPLC-purified radiopeptides), in duplicate for 60 min at room temperature. The initial concentrations of ^68Ga-labeled peptides were determined according to a well-established HPLC technique with simultaneous detection by UV absorbance. As the amount of BN peptide in the reaction mixture was too small to be detected by UV absorption at 220 nm, the radioactive peptide chromatograms from the HPLC analysis were compared (with UV chromatograms) with those of known concentrations of the corresponding nonradioactive peptides for the mass determination. Incubation was terminated by dilution with cold saline (300 μL) and the cells were pelleted by centrifugation. The cell pellets was then rapidly washed with cold saline to remove any unbound peptide and centrifuged to collect supernatants. Radioactivity in the cell pellet and the washings was measured in a γ-counter. Non-specific binding was determined in the presence of ~ 200-fold molar excess of unlabeled BN peptide. Specific binding is calculated by subtracting the non-specifically bound radioactivity from that of the total binding. The dissociation constant (Kd) was calculated using a plot of cell bound activity versus the concentration of the radioligand using GraphPad Prism software (GraphPad Software Inc., San Diego, CA, USA).

[3] = Radio-HPLC retention time as reflection of lipophilicity; format: physicochemical; conditions: chromatographic, econosphere C18 (10 μm, 250 × 4.6 mm), 0.1% TFA water/acetonitrile, 5 to 95% B over 30 min, 1.1 mL/min; radio detection; used as reflection of lipophilicity
Procedure: The HPLC analysis and purification of the peptides were performed on a Shimadzu HPLC system using econosphere C18 reversed-phase column (10 μm, 250 × 4.6 mm). For all HPLC experiments, a gradient system of 0.1% (v/v) TFA in water (solvent A) and 0.1% (v/v) TFA in acetonitrile (solvent B) at a flow rate of 1.1 mL/min was used. The HPLC gradient began with a solvent composition of 95% A and 5% B from 0 to 2.5 min followed by a linear gradient of 95% A and 5% B to 5% A and 95% B over 30 min. The gradient remained at this position for 3 min before switching back to 95% A and 5% B for another 7 min. The major peak isolated and the acetonitrile was then slowly evaporated under a stream of nitrogen gas. Radiochemical purity was estimated by evaluating radioactivity peaks eluted for each ^68Ga-labeled peptide from the HPLC column and calculating the area under the peak (ROI). The main peak of each radiopeptide was isolated and reconstituted in sterile saline for in vitro and in vivo experiments. Radiolabeling of DOTA-coupled BN peptides with ^68Ga was accomplished simply by mixing ~ 20 μg BN peptide with sodium acetate buffer and ^68GaCl3 followed by heating to complete the labeling reaction. By this facile method, a high and reproducible radiolabeling of peptides with ^68Ga was achieved (up to 95%), with a specific radioactivity of greater than 250 Ci/mmol. […] A radiolabeling efficiency of greater than 90% was obtained in all cases, and it ranged between 90 and 95%. […] RP-HPLC retention times of the major peaks, ranging from 18.3 to 20.3 min, reflected slightly variable lipophilicity of these ^68Ga-complexes (Table 1).

[4] = target: T2, BN/GRP receptor-positive MCF7 human breast cancer cells (Homo sapiens, UniProt P30550); test: Saturation binding assay on MCF7 cells; conditions: n = 3-5 experiments; for Bmax (apparent number of binding sites per cell): SD < 15%; for Kd: ~300,000 cells, 0.1-25 nM radiopeptide, 60 min, room temperature, mean ± SD
T2 construct: BN/GRP receptor-positive MDA-MB-231, MCF7, T47D human breast cancer, and PC3 human prostate cancer lines; host or cells: MDA-MB-231, MCF7, T47D (human breast cancer), PC3 (human prostate cancer); intact cells
Procedure: as §1

| Compound | Radioactivity in Urine + bladder ([1]; 1 h) | Uptake in Blood ([1]; 1 h) [% ID/g] | Uptake in Intestines (measured without their contents) ([1]; 1 h) [% ID/g] | Uptake in Kidneys ([1]; 1 h) [% ID/g] | Uptake in Liver ([1]; 1 h) [% ID/g] | Uptake in Lungs ([1]; 1 h) [% ID/g] | Uptake in Muscle ([1]; 1 h) [% ID/g] | Uptake in Pancreas ([1]; 1 h) [% ID/g] | Uptake in Spleen ([1]; 1 h) [% ID/g] | Uptake in Stomach ([1]; 1 h) [% ID/g] | Radioactivity in Urine + bladder ([1]; 2 h) | Uptake in Blood ([1]; 2 h) [% ID/g] | Uptake in Intestines (measured without their contents) ([1]; 2 h) [% ID/g] | Uptake in Kidneys ([1]; 2 h) [% ID/g] | Uptake in Spleen ([1]; 2 h) [% ID/g] | Uptake in Tumor ([1]; 1 h p.i.) [% ID/g] | Uptake in Tumor ([1]; 2 h p.i.) [% ID/g] | Bmax (apparent number of binding sites per cell) [2] | Radio-HPLC tR [3] [min] | Bmax (apparent number of binding sites per cell) [4] | further results |
| --- | --- | --- | --- | --- | --- | --- | --- | --- | --- | --- | --- | --- | --- | --- | --- | --- | --- | --- | --- | --- | --- |
| CCCC[C@H](NC(=O)[C@H](Cc1c[nH]cn1)NC(=O)[C@H](CC1CCCCC1)NC(=O)[C@@H](NC(=O)[C@H](C)NC(=O)[C@H](Cc1c[nH]c2ccccc12)NC(=O)[C@H](CCC(N)=O)NC(=O)[C@H](CS)NC(=O)CNC(=O)CNC(=O)CCC(=O)CNC(=O)CN1CCN(CC(=O)O)CCN(CC(=O)O)CCN(CC(=O)O)CC1)C(C)C)C(=O)N[C@@H](CCSC)C(N)=O [^68Ga-DOTA-ALA-BN Tris-, metal not drawn] ({DOTA}-[X1]GGCQWAV[Cha]H[Nle]M-NH2) | 54.0 ± 5.78 % injected dose per tissue | 0.85 ± 0.15 | 1.05 ± 0.18 | 5.12 ± 0.69 | 2.31 ± 0.38 | 2.35 ± 0.33 | 0.39 ± 0.03 | 1.19 ± 0.15 | 0.44 ± 0.06 | 0.83 ± 0.21 | 61.0 ± 7.10 % injected dose per tissue | 0.30 ± 0.04 | 0.73 ± 0.13 | 3.56 ± 0.50 | 0.35 ± 0.03 | 1.78 ± 0.40 | 1.25 ± 0.21 | 9.68 × 10^4 sites/cell | 20.3 | 1.05 × 10^5 sites/cell | Uptake in Liver ([1]; 2 h): 1.50 ± 0.27 % ID/g; Uptake in Lungs ([1]; 2 h): 0.70 ± 0.16 % ID/g; Uptake in Muscle ([1]; 2 h): 0.23 ± 0.02 % ID/g; Uptake in Pancreas ([1]; 2 h): 0.71 ± 0.10 % ID/g; Uptake in Stomach ([1]; 2 h): 0.37 ± 0.07 % ID/g; Kd [2]: 16 ± 4.01 nM; Kd [4]: 12.3 ± 1.94 nM |
| CCCC[C@H](NC(=O)[C@H](Cc1c[nH]cn1)NC(=O)[C@H](CC1CCCCC1)NC(=O)[C@@H](NC(=O)[C@H](C)NC(=O)[C@H](Cc1c[nH]c2ccccc12)NC(=O)[C@H](CCC(N)=O)NC(=O)[C@H](CS)NC(=O)CNC(=O)CNC(=O)c1ccc(NC(=O)CN2CCN(CC(=O)O)CCN(CC(=O)O)CCN(CC(=O)O)CC2)cc1)C(C)C)C(=O)N[C@@H](CCSC)C(N)=O [^68Ga-DOTA-Abz-BN Tris-, metal not drawn] ({DOTA-4Abz}-GGCQWAV[Cha]H[Nle]M-NH2) | 58.0 ± 6.25 % injected dose per tissue | 0.93 ± 0.22 | 1.01 ± 0.17 | 6.52 ± 0.60 | 2.28 ± 0.31 | 1.82 ± 0.30 | 0.36 ± 0.07 | 1.81 ± 0.22 | 0.18 ± 0.03 | 1.0 ± 0.20 | 65.0 ± 9.13 % injected dose per tissue | 0.64 ± 0.16 | 0.76 ± 0.12 | 3.96 ± 0.48 | 0.09 ± 0.02 | 2.15 ± 0.33 | 1.37 ± 0.25 | 1.0 × 10^5 sites/cell | 19.3 | 4.86 × 10^5 sites/cell | Uptake in Liver ([1]; 2 h): 1.71 ± 0.20 % ID/g; Uptake in Lungs ([1]; 2 h): 1.26 ± 0.25 % ID/g; Uptake in Muscle ([1]; 2 h): 0.28 ± 0.04 % ID/g; Uptake in Pancreas ([1]; 2 h): 0.93 ± 0.15 % ID/g; Uptake in Stomach ([1]; 2 h): 0.52 ± 0.13 % ID/g |
| CCCC[C@H](NC(=O)[C@H](Cc1c[nH]cn1)NC(=O)[C@H](CC1CCCCC1)NC(=O)[C@@H](NC(=O)[C@H](C)NC(=O)[C@H](Cc1c[nH]c2ccccc12)NC(=O)[C@H](CCC(N)=O)NC(=O)[C@H](CS)NC(=O)CNC(=O)CNC(=O)CCCCCNC(=O)CN1CCN(CC(=O)O)CCN(CC(=O)O)CCN(CC(=O)O)CC1)C(C)C)C(=O)N[C@@H](CCSC)C(N)=O [^68Ga-DOTA-Ahx-BN Tris-, metal not drawn] ({DOTA-Ahx}-GGCQWAV[Cha]H[Nle]M-NH2) | 66.0 ± 6.60 % injected dose per tissue | 0.70 ± 0.12 | 0.89 ± 0.12 | 4.85 ± 0.43 | 2.20 ± 0.33 | 1.86 ± 0.14 | 0.28 ± 0.04 | 1.30 ± 0.18 | 0.33 ± 0.02 | 0.87 ± 0.11 | 68.0 ± 7.55 % injected dose per tissue | 0.60 ± 0.09 | 0.50 ± 0.10 | 3.74 ± 0.24 | 0.16 ± 0.01 | 2.09 ± 0.33 | 1.62 ± 0.18 | 4.91 × 10^5 sites/cell | 18.3 | 6.22 × 10^5 sites/cell | Uptake in Liver ([1]; 2 h): 1.83 ± 0.24 % ID/g; Uptake in Lungs ([1]; 2 h): 0.61 ± 0.07 % ID/g; Uptake in Muscle ([1]; 2 h): 0.20 ± 0.02 % ID/g; Uptake in Pancreas ([1]; 2 h): 0.75 ± 0.11 % ID/g; Uptake in Stomach ([1]; 2 h): 0.60 ± 0.07 % ID/g; Kd [2]: 14.5 ± 2.4 nM; Kd [4]: 9.32 ± 1.5 nM |
| CCCC[C@H](NC(=O)[C@H](Cc1c[nH]cn1)NC(=O)[C@H](CC1CCCCC1)NC(=O)[C@@H](NC(=O)[C@H](C)NC(=O)[C@H](Cc1c[nH]c2ccccc12)NC(=O)[C@H](CCC(N)=O)NC(=O)[C@H](CS)NC(=O)CNC(=O)CNC(=O)CCC(=O)CNC(=O)CN1CCN(CC(=O)O)CCN(CC(=O)O)CCN(CC(=O)O)CC1)C(C)C)C(=O)N[C@@H](CCSC)C(N)=O [^68Ga-DOTA-ALA-BN Cyclen, metal not drawn] ({DOTA}-[X1]GGCQWAV[Cha]H[Nle]M-NH2) |  |  |  |  |  |  |  |  |  |  |  |  |  |  | 0.17 ± 0.02 | 1.82 ± 0.26 | 0.84 ± 0.13 | 9.90 × 10^4 sites/cell | 20.3 | 2.11 × 10^5 sites/cell | Kd [2]: 15.6 ± 3.47 nM; Kd [4]: 13.7 ± 2.32 nM |
